Patent US20180015177A1 (Genentech, published 2018)
“And” between values parts separate entries of the source, which are not always exact repeats. Equal entries are not always repeated.

target: T1, human Ly6E, N-terminal gD-tagged, stably expressed on PC3 cells (human, UniProt Q16553 21-101); test: cell-based competitive binding on human Ly6E PC3 cells; competitor mouse 9B12
T1 construct: GPI-linked protein on cells; also called hu Ly6E; human Ly6E transfected PC3 cells; not shown: N-terminal gD tag of the retroviral vector
T1 sequence: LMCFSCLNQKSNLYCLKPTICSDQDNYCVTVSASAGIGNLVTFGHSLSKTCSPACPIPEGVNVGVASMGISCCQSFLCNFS
Procedure: (§1) Cell-based Ly6E competitive binding assay—Cultured human Ly6E transfected PC3 cells were harvested with 5 mM EDTA containing PBS. Cells were washed with PBS and added onto a 384-well high binding plate (Meso Scale Discovery Technology (MSD); Gaithersburg, Md.). The plate was kept at room temperature for 1 hr to allow cells to adhere to the plate as described (See Lu, Y., Wong, W. L. & Meng, Y. G. A high throughput electrochemiluminescent cell-binding assay for therapeutic anti-CD20 antibody selection. Journal of Immunological Methods 314, 74-79 (2006)). The plate with cells was blocked with fetal bovine serum containing PBS for 1 hr and then cooled on ice. Serially diluted antibody variant samples were mixed with equal volume of fixed concentration of mouse 9B12 Ab. The mixtures were added onto the plates and incubated at 4° C. with gentle shaking for 1 hr.
(§2) The plate was then washed with cold PBS and an anti-mouse IgG Fc specific Ab (Jackson ImmunoReserach; West Grove, Pa.) labeled with sulfo-ruthenium tag was added to the plate as the detection reagent. The plate was incubated at 4° C. with gentle shaking for 1 hr. After incubation the plate was washed again, and MSD read buffer (MSD; Gaithersburg, Md.) was added onto the wells. The plate was read with a MSD SectorÒ imager 6000. The data was graphed and analyzed using KaleidaGraph software (Synergy Software; Reading, Pa.) to determine IC₅₀ values.

| Binder | IC50 |
| --- | --- |
| humanized 9B12 variant v2 (antibody, V domains shown, IgG. k1 graft / VH2 graft + 24 + 49; Residue changes derived against v12) VH: EVQLVESGPALVKPTQTLTLTCTVSGFSLTGYSVNWIRQPPGKALEWLGMIWGDGSTDYNSALKSRLTISKDTSKNQVVLTMTNMDPVDTATYYCARDYYFNYASWFAYWGQGTLVTVSS VL: DIQMTQSPSSLSASVGDRVTITCSASQGISNYLNWYQQKPGKAPKLLIYYTSNLHSGVPSRFSGSGSGTDFTLTISSLQPEDFATYYCQQYSELPWTFGQGTKVEIK | 28 nM and 37 nM |
| humanized 9B12 variant v25 (antibody, V domains shown, IgG. k1 graft + 71 / VH3 graft + 24 + 48 + 67 + 71 + 76 + 78; Residue changes derived) VH: EVQLVESGGGLVQPGGSLRLSCAVSGFSLTGYSVNWVRQAPGKGLEWLGMIWGDGSTDYNSALKSRLTISKDNSKSTVYLQMNSLRAEDTAVYYCARDYYFNYASWFAYWGQGTLVTVSS VL: DIQMTQSPSSLSASVGDRVTITCSASQGISNYLNWYQQKPGKAPKLLIYYTSNLHSGVPSRFSGSGSGTDYTLTISSLQPEDFATYYCQQYSELPWTFGQGTKVEIK | 56 nM |
| humanized 9B12 variant v21 (antibody, V domains shown, IgG. k1 graft + 71 / VH2 graft + 24 + 37 + 49; Residue changes derived) VH: EVQLVESGPALVKPTQTLTLTCTVSGFSLTGYSVNWVRQPPGKALEWLGMIWGDGSTDYNSALKSRLTISKDTSKNQVVLTMTNMDPVDTATYYCARDYYFNYASWFAYWGQGTLVTVSS VL: DIQMTQSPSSLSASVGDRVTITCSASQGISNYLNWYQQKPGKAPKLLIYYTSNLHSGVPSRFSGSGSGTDYTLTISSLQPEDFATYYCQQYSELPWTFGQGTKVEIK | 82 nM |
| humanized 9B12 variant v20 (antibody, V domains shown, IgG. k1 graft 43+44+71 / VH3 graft + 24 + 48 + 67 + 71 + 76 + 78; Residue changes derived) VH: EVQLVESGGGLVQPGGSLRLSCAVSGFSLTGYSVNWVRQAPGKGLEWLGMIWGDGSTDYNSALKSRLTISKDNSKSTVYLQMNSLRAEDTAVYYCARDYYFNYASWFAYWGQGTLVTVSS VL: DIQMTQSPSSLSASVGDRVTITCSASQGISNYLNWYQQKPGKTVKLLIYYTSNLHSGVPSRFSGSGSGTDYTLTISSLQPEDFATYYCQQYSELPWTFGQGTKVEIK | 26 nM |
| humanized 9B12 variant v9 (antibody, V domains shown, IgG. k1 graft 43+44 / VH3 graft + 24; Residue changes derived) VH: EVQLVESGGGLVQPGGSLRLSCAVSGFSLTGYSVNWVRQAPGKGLEWVGMIWGDGSTDYNSALKSRFTISRDNSKNTLYLQMNSLRAEDTAVYYCARDYYFNYASWFAYWGQGTLVTVSS VL: DIQMTQSPSSLSASVGDRVTITCSASQGISNYLNWYQQKPGKTVKLLIYYTSNLHSGVPSRFSGSGSGTDFTLTISSLQPEDFATYYCQQYSELPWTFGQGTKVEIK | 34 nM and 44 nM |
| humanized 9B12 variant v23 (antibody, V domains shown, IgG. k1 graft + 71 / VH2 graft + 24 + 49 + 73 + 76; Residue changes derived) VH: EVQLVESGPALVKPTQTLTLTCTVSGFSLTGYSVNWIRQPPGKALEWLGMIWGDGSTDYNSALKSRLTISKDNSKSQVVLTMTNMDPVDTATYYCARDYYFNYASWFAYWGQGTLVTVSS VL: DIQMTQSPSSLSASVGDRVTITCSASQGISNYLNWYQQKPGKAPKLLIYYTSNLHSGVPSRFSGSGSGTDYTLTISSLQPEDFATYYCQQYSELPWTFGQGTKVEIK | 54 nM |
| humanized 9B12 variant v24 (antibody, V domains shown, IgG. k1 graft + 71 / VH2 graft + 24 + 37 + 49 + 73 + 76; Residue changes derived) VH: EVQLVESGPALVKPTQTLTLTCTVSGFSLTGYSVNWVRQPPGKALEWLGMIWGDGSTDYNSALKSRLTISKDNSKSQVVLTMTNMDPVDTATYYCARDYYFNYASWFAYWGQGTLVTVSS VL: DIQMTQSPSSLSASVGDRVTITCSASQGISNYLNWYQQKPGKAPKLLIYYTSNLHSGVPSRFSGSGSGTDYTLTISSLQPEDFATYYCQQYSELPWTFGQGTKVEIK | 53 nM |
| humanized 9B12 variant v16 (antibody, V domains shown, IgG. k1 graft 43+44+71 / VH2 graft + 24 + 37 + 49; Residue change derived) VH: EVQLVESGPALVKPTQTLTLTCTVSGFSLTGYSVNWVRQPPGKALEWLGMIWGDGSTDYNSALKSRLTISKDTSKNQVVLTMTNMDPVDTATYYCARDYYFNYASWFAYWGQGTLVTVSS VL: DIQMTQSPSSLSASVGDRVTITCSASQGISNYLNWYQQKPGKTVKLLIYYTSNLHSGVPSRFSGSGSGTDYTLTISSLQPEDFATYYCQQYSELPWTFGQGTKVEIK | 27 nM |
| humanized 9B12 variant v7 (antibody, V domains shown, IgG. k1 graft 43+44 / VH2 graft + 24 + 49; Residue change derived) VH: EVQLVESGPALVKPTQTLTLTCTVSGFSLTGYSVNWIRQPPGKALEWLGMIWGDGSTDYNSALKSRLTISKDTSKNQVVLTMTNMDPVDTATYYCARDYYFNYASWFAYWGQGTLVTVSS VL: DIQMTQSPSSLSASVGDRVTITCSASQGISNYLNWYQQKPGKTVKLLIYYTSNLHSGVPSRFSGSGSGTDFTLTISSLQPEDFATYYCQQYSELPWTFGQGTKVEIK | 24 nM and 36 nM |
| humanized 9B12 variant v18 (antibody, V domains shown, IgG. k1 graft 43+44+71 / VH2 graft + 24 + 49 + 73 + 76; Residue changes derived) VH: EVQLVESGPALVKPTQTLTLTCTVSGFSLTGYSVNWIRQPPGKALEWLGMIWGDGSTDYNSALKSRLTISKDNSKSQVVLTMTNMDPVDTATYYCARDYYFNYASWFAYWGQGTLVTVSS VL: DIQMTQSPSSLSASVGDRVTITCSASQGISNYLNWYQQKPGKTVKLLIYYTSNLHSGVPSRFSGSGSGTDYTLTISSLQPEDFATYYCQQYSELPWTFGQGTKVEIK | 22 nM |
| humanized 9B12 variant v10 (antibody, V domains shown, IgG. k1 graft 43+44 / VH3 graft + 71 + 78; Residue changes derived) VH: EVQLVESGGGLVQPGGSLRLSCAASGFSLTGYSVNWVRQAPGKGLEWVGMIWGDGSTDYNSALKSRFTISKDNSKNTVYLQMNSLRAEDTAVYYCARDYYFNYASWFAYWGQGTLVTVSS VL: DIQMTQSPSSLSASVGDRVTITCSASQGISNYLNWYQQKPGKTVKLLIYYTSNLHSGVPSRFSGSGSGTDFTLTISSLQPEDFATYYCQQYSELPWTFGQGTKVEIK | 61 nM |
| humanized 9B12 variant v5 (antibody, V domains shown, IgG. k1 graft / VH3 graft + 71 + 78; Residue changes derived) VH: EVQLVESGGGLVQPGGSLRLSCAASGFSLTGYSVNWVRQAPGKGLEWVGMIWGDGSTDYNSALKSRFTISKDNSKNTVYLQMNSLRAEDTAVYYCARDYYFNYASWFAYWGQGTLVTVSS VL: DIQMTQSPSSLSASVGDRVTITCSASQGISNYLNWYQQKPGKAPKLLIYYTSNLHSGVPSRFSGSGSGTDFTLTISSLQPEDFATYYCQQYSELPWTFGQGTKVEIK | 70 nM |
| humanized 9B12 variant v15 (antibody, V domains shown, IgG. k1 graft 43+44+71 / VH3 graft + 71 + 78; Residue changes derived) VH: EVQLVESGGGLVQPGGSLRLSCAASGFSLTGYSVNWVRQAPGKGLEWVGMIWGDGSTDYNSALKSRFTISKDNSKNTVYLQMNSLRAEDTAVYYCARDYYFNYASWFAYWGQGTLVTVSS VL: DIQMTQSPSSLSASVGDRVTITCSASQGISNYLNWYQQKPGKTVKLLIYYTSNLHSGVPSRFSGSGSGTDYTLTISSLQPEDFATYYCQQYSELPWTFGQGTKVEIK | 42 nM and 52 nM |
| humanized 9B12 variant v4 (antibody, V domains shown, IgG. k1 graft / VH3 graft + 24) VH: EVQLVESGGGLVQPGGSLRLSCAVSGFSLTGYSVNWVRQAPGKGLEWVGMIWGDGSTDYNSALKSRFTISRDNSKNTLYLQMNSLRAEDTAVYYCARDYYFNYASWFAYWGQGTLVTVSS VL: DIQMTQSPSSLSASVGDRVTITCSASQGISNYLNWYQQKPGKAPKLLIYYTSNLHSGVPSRFSGSGSGTDFTLTISSLQPEDFATYYCQQYSELPWTFGQGTKVEIK | 98 nM and 70 nM |
| humanized 9B12 variant v22 (antibody, V domains shown, IgG. k1 graft + 71 / VH2 graft + 24 + 49 + 73; Residue changes derived) VH: EVQLVESGPALVKPTQTLTLTCTVSGFSLTGYSVNWIRQPPGKALEWLGMIWGDGSTDYNSALKSRLTISKDNSKNQVVLTMTNMDPVDTATYYCARDYYFNYASWFAYWGQGTLVTVSS VL: DIQMTQSPSSLSASVGDRVTITCSASQGISNYLNWYQQKPGKAPKLLIYYTSNLHSGVPSRFSGSGSGTDYTLTISSLQPEDFATYYCQQYSELPWTFGQGTKVEIK | 59 nM |
| humanized 9B12 variant v19 (antibody, V domains shown, IgG. k1 graft 43+44+71 / VH2 graft + 24 + 37 + 49 + 73 + 76; Residue changes derived) VH: EVQLVESGPALVKPTQTLTLTCTVSGFSLTGYSVNWVRQPPGKALEWLGMIWGDGSTDYNSALKSRLTISKDNSKSQVVLTMTNMDPVDTATYYCARDYYFNYASWFAYWGQGTLVTVSS VL: DIQMTQSPSSLSASVGDRVTITCSASQGISNYLNWYQQKPGKTVKLLIYYTSNLHSGVPSRFSGSGSGTDYTLTISSLQPEDFATYYCQQYSELPWTFGQGTKVEIK | 28 nM |
| humanized 9B12 variant v17 (antibody, V domains shown, IgG. k1 graft 43+44+71 / VH2 graft + 24 + 49 + 73; Residue change derived) VH: EVQLVESGPALVKPTQTLTLTCTVSGFSLTGYSVNWIRQPPGKALEWLGMIWGDGSTDYNSALKSRLTISKDNSKNQVVLTMTNMDPVDTATYYCARDYYFNYASWFAYWGQGTLVTVSS VL: DIQMTQSPSSLSASVGDRVTITCSASQGISNYLNWYQQKPGKTVKLLIYYTSNLHSGVPSRFSGSGSGTDYTLTISSLQPEDFATYYCQQYSELPWTFGQGTKVEIK | 29 nM |
| humanized 9B12 variant v14 (antibody, V domains shown, IgG. k1 graft 43+44+71 / VH3 graft + 24; Residue change derived) VH: EVQLVESGGGLVQPGGSLRLSCAVSGFSLTGYSVNWVRQAPGKGLEWVGMIWGDGSTDYNSALKSRFTISRDNSKNTLYLQMNSLRAEDTAVYYCARDYYFNYASWFAYWGQGTLVTVSS VL: DIQMTQSPSSLSASVGDRVTITCSASQGISNYLNWYQQKPGKTVKLLIYYTSNLHSGVPSRFSGSGSGTDYTLTISSLQPEDFATYYCQQYSELPWTFGQGTKVEIK | 39 nM and 56 nM |

target: T1, human Ly6E, N-terminal gD-tagged, …; test: cell-based Ly6E competitive binding assay on human Ly6E PC3 cells; competitor mouse 9B12
Procedure: as §1, §2

| Binder | binding result |
| --- | --- |
| humanized 9B12 variant v1 (antibody, V domains shown, IgG. k1 graft / VH2 graft + 49) VH: EVQLVESGPALVKPTQTLTLTCTFSGFSLTGYSVNWIRQPPGKALEWLGMIWGDGSTDYNSALKSRLTISKDTSKNQVVLTMTNMDPVDTATYYCARDYYFNYASWFAYWGQGTLVTVSS VL: DIQMTQSPSSLSASVGDRVTITCSASQGISNYLNWYQQKPGKAPKLLIYYTSNLHSGVPSRFSGSGSGTDFTLTISSLQPEDFATYYCQQYSELPWTFGQGTKVEIK | no binding |
